These results are taken from article PMC4654454 (ACS chemical biology, 2015).

The assay has as its target nucleosome core particle labeled with H4Kc20me2. Description: native gel or EMSA.

As for “human Origin Recognition Complex subunit 1 BAH domain, R105Q mutant (from UniProt Q13415 45-171) (domain or fragment)”, the fold reduction of affinity against wild type hORC1BAH is > 2 fold.
